According to patent publication US20230082465A1 (published 2023):

Key:
Fibrinogen Fragment D = biological target: T1, Fibrinogen Fragment D (human, UniProt P02671 124-216; P02675 164-491; P02679 89-437); test: BLI
T1 chain 1: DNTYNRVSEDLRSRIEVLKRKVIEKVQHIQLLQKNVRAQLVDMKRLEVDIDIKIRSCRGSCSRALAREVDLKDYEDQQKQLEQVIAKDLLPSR
T1 chain 2: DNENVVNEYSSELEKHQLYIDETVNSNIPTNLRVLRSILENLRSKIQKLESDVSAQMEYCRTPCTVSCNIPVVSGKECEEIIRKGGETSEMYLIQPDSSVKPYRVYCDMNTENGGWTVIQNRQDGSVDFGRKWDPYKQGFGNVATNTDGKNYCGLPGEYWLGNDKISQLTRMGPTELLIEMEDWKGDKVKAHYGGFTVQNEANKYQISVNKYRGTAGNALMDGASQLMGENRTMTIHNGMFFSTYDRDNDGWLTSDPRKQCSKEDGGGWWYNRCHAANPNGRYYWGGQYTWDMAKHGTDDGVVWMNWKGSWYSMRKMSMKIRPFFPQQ
T1 chain 3: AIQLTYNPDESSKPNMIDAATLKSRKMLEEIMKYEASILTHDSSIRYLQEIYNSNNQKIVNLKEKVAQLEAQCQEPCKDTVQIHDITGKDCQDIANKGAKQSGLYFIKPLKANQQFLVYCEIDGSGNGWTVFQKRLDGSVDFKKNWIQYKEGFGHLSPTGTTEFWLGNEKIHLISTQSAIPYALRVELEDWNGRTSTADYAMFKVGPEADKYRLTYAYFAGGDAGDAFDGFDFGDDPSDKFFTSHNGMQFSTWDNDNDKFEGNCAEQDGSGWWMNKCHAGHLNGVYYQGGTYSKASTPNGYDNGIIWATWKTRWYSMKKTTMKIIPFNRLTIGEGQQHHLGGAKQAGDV

Fragment DD from fibrin = biological target: T2, Fragment DD from fibrin (human, UniProt P02671 124-216; P02675 164-491; P02679 89-437); test: BLI
T2 chain 1: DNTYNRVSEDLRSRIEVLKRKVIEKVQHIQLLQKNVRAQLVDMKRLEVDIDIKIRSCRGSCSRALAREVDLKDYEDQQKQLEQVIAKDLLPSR
T2 chain 2: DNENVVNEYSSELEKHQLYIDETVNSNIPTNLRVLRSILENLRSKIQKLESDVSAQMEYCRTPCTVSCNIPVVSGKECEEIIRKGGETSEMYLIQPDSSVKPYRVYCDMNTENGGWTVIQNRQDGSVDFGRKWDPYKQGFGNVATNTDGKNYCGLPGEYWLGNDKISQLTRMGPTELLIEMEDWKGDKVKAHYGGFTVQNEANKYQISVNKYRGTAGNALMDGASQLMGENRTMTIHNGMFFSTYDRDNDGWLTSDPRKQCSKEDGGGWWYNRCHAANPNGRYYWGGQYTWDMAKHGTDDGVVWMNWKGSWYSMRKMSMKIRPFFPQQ
T2 chain 3: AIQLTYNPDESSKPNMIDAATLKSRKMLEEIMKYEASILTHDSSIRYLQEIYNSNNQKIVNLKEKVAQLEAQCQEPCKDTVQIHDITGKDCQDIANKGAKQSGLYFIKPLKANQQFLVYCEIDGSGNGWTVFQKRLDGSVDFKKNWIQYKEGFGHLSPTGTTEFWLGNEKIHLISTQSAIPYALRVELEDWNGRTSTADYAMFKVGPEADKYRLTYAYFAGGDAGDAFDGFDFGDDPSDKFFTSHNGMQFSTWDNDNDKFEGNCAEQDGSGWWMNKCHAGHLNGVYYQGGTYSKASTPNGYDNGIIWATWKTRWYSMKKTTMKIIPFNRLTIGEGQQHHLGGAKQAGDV

B1: recombinant antibody #12 (antibody, V domains shown)
VH: QVQLQQPGAEVVRPGASVKLSCKASGYSFTSYWIHWLKQGPHQGLEWIGRIDPDDSETHYNQKFKDKALLTVDKSSSTAYMQLRSLTSEDSAVYYCARTNWDAWFAYWGQGTLVTVSA
VL: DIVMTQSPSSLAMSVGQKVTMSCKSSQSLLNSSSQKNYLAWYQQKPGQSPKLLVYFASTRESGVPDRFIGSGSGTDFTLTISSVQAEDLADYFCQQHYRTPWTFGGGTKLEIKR
Question: What does the source list for B1?
Answer: Kd (Fibrinogen Fragment D): 36.8 nM; Kd (Fragment DD from fibrin): 0.417 nM
